Here are results for eight molecules from patent US20250257128A1 (DRAGONBOAT BIOPHARMACEUTICAL SHANGHAI, published 2025).

The target in experiment [1] is T1, human CD47 (human, UniProt Q08722 19-323).
T1 construct: whole, on cells; also called CD47 on red blood cells; endogenous CD47 on NUGC-4 cells
In words: flow cytometry, blocking of SIRPα-mFc binding to CD47 on NUGC-4 cells. Here is the method:
(§1) The specific method was as follows: 1×10⁵ NUGC-4 cells or hCLDN18.2-NUGC-4 cells were taken and centrifuged at a low speed (300 g), and the supernatant was removed. The cells at the bottom of the centrifuge tube were rinsed once with a formulated FACS buffer (1×PBS buffer containing 2% FBS). Subsequently, the serially diluted antibody to be tested was added to the rinsed cells, which were then incubated for 1 h. After the cells were rinsed twice with FACS buffer, 100 μL of 1 μg/mL SIRPα-mFc (ACRO, SIA-H52A8) was added, followed by incubation at 4° C. for 1 h. After the cells were rinsed with FACS buffer for three times, 100 μL of 1:200 diluted PE-labeled goat anti-mouse Fc (Abcam, ab98742) was added as the secondary antibody, followed by incubation at 4° C. for 1 h. After centrifugation, the supernatant was removed, the cells were resuspended by adding 200 μL of FACS buffer, and finally the amount of SIRPα-mFc binding to the cells (expressed as mean fluorescence intensity (MFI)) was measured by a flow cytometer (Beckman, CytoFLEX AOO-1-1102).
In general terms: Flow cytometry measures light scatter and fluorescence of single cells or particles in a stream.

Experiment [2] deals with T1, human CD47. In words: flow cytometry, blocking of SIRPα-mFc binding to CD47 on hCLDN18.2-NUGC-4 cells. The protocol:
as §1
Besides, due to the fact that the anti-CLDN18.2 single domain antibody NA3S-H1 was only bound to CLDN18.2, the antibody had no blocking effect.

Experiment [3] addresses T1, human CD47. In words: flow cytometry on human red blood cells, antibody at 150 µg/mL. The protocol:
(§2) Flow cytometry was used to determine whether the bispecific antibody was bound to red blood cells. Another anti-CD47 antibody F4AM4-IgG1 (abbreviated as F4AM4 in the accompanying drawings; the amino acid sequence of the heavy chain is SEQ ID NO: 24, and the amino acid sequence of the light chain is SEQ ID NO: 25) developed by the applicant was used as a positive control antibody.
(§3) The specific method was as follows: red blood cells were isolated from 1 mL of anticoagulant human blood, and the supernatant was aspirated following centrifugation. After the cells were rinsed twice with PBS, 1 mL of PBS was added to resuspend the red blood cells. The red blood cells were diluted to 1×10⁷/mL with PBS, pipetted at 50 μL/well and added to a 96-well round bottom cell culture plate. Then an equal volume of the serially diluted antibody to be tested was added, fully mixed, and incubated at 4° C. for 1 h. After the culture was rinsed with FACS buffer for three times, 0.5 μg of PE-labeled goat anti-human IgG Fc antibody (Abcam, ab98596) was added, followed by incubation at 4° C. for 1 h. Subsequently, the cells were rinsed with FACS buffer for three times and then resuspended by adding 200 μL of FACS buffer, and finally the amount of the antibody binding to the red blood cells (expressed as mean fluorescence intensity (MFI)) was measured by a flow cytometer (Beckman, CytoFLEX AOO-1-1102).

The target in experiment [4] is T1, human CD47. The experiment can be described thus: flow cytometry on human red blood cells, antibody at 15 µg/mL. Here is the method:
as §2, §3

Values joined by “and” are separate entries in the source; they are usually repeats but may differ in a detail not shown here. Identical values can stand only once.

T1 sequence (Q08722 19-323): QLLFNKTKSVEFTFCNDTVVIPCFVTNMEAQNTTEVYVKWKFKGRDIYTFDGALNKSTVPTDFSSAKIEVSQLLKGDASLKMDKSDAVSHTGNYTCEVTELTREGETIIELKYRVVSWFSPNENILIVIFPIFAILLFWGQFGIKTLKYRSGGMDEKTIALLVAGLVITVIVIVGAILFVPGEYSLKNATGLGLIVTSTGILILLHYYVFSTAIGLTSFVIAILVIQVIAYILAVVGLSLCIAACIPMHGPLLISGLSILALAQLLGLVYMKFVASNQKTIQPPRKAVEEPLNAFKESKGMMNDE

B1: antibody 1F8 (the 1F8 antibody in WO 2018075857 A1) (antibody, V domains shown)
VH: KVQLVESGGGLVKPGGSLRLSCAASGFTFSNAWMNWVRQAPGKGLEWVGRIKRKTDGETTDYAAPVKGRFSISRDDSKNTLYLQMNSLKTEDTAVYYCAGSNRAFDIWGQGTMVTVSA
VL: DIVMTQSPDSLAVSLGERATINCKSSQSVLYSSNNRNYLAWYQQKPGQPPKLLINQASTRASGVPDRFSGSGSGTEFTLIISSLHAEDVAIYYCQQYYTPPLAFGGGTKLEIK
A word on the IC50: it is the concentration at which inhibition is half-maximal. A lower IC50 goes with greater potency in that assay. B1: the IC50 is 15.4 µg/mL and 106 nM with human CD47 [1]; 12 µg/mL and 82.3 nM with human CD47 [2].

B2: anti-CD47 humanized antibody A7H3L3 (antibody, human IgG1, kappa, V domains shown)
VH: QVQLVQSGAEVKKPGASVKVSCKASGFNIKDIYIYWVRQAPGQGLEWIGKIDPANGNTKYDQKFQGRATITADTSTNTAYLELSSLRSEDTAVYYCARGYGSGFAYWGQGTLVTVSS
VL: DIQMTQSPSSLSASVGDRVTITCRASQDISNHLNWYQQKPGKAPKLLIYYTSRIHSGVPSSFRGSGSGTDYTLTISSLQPEDIATYFCQQGYTLPFTFGSGTKLEIKR
notes: also called A7H3L3 monoclonal antibody; anti-CD47 monoclonal antibody A7H3L3
As for B2, the MFI came out at 608 MFI with human CD47 [3] and 463 MFI in the experiment with human CD47 [4].

B3: anti-CD47 antibody F4AM4-IgG1 (antibody, V domains shown)
VH: QVQLVQSGAEVKKPGASVKMSCKASGYTFTSSVMHWVRQAPGQGLEWIGYINPYTDGTKYAQKFQGRATLTSDKSTSTAYMEFSSLRSEDTAVYYCGRPYYGTRYGSWFAYWGQGTLVTVSS
VL: DIQMTQSPSSLSASVGDRVTITCRASQDISNYLNWYQQKPGKAPKLLIYYTSRLHSGVPSRFSGSGSGTDYTLTISNLQPEDIATYYCQQGKNYPFTFGSGTKLEIKR
notes: Positive control anti-CD47 antibody developed by the applicant
With B3, the IC50 in the experiment with human CD47 [1] is 0.033 µg/mL and 0.226 nM; with human CD47 [2] it was 0.056 µg/mL and 0.383 nM.

B4: anti-CD47/anti-CLDN18.2 bispecific antibody B8 (bispecific antibody, human IgG1, kappa)
heavy: not shown
light: DIQMTQSPSSLSASVGDRVTITCRASQDISNHLNWYQQKPGKAPKLLIYYTSRIHSGVPSSFRGSGSGTDYTLTISSLQPEDIATYFCQQGYTLPFTFGSGTKLEIKRTVAAPSVFIFPPSDEQLKSGTASVVCLLNNFYPREAKVQWKVDNALQSGNSQESVTEQDSKDSTYSLSSTLTLSKADYEKHKVYACEVTHQGLSSPVTKSFNRGEC
notes: IgG-like format, human IgG1 / kappa constant regions
For B4, the MFI with human CD47 [3] came out at 2140 MFI; with human CD47 [4] it was 988 MFI.

B5: anti-CD47/anti-CLDN18.2 bispecific antibody B10 (bispecific antibody, human IgG1, kappa)
heavy: not shown
light: DIQMTQSPSSLSASVGDRVTITCRASQDISNHLNWYQQKPGKAPKLLIYYTSRIHSGVPSSFRGSGSGTDYTLTISSLQPEDIATYFCQQGYTLPFTFGSGTKLEIKRTVAAPSVFIFPPSDEQLKSGTASVVCLLNNFYPREAKVQWKVDNALQSGNSQESVTEQDSKDSTYSLSSTLTLSKADYEKHKVYACEVTHQGLSSPVTKSFNRGEC
notes: IgG-like format; NA3S-H1 VHH at the C-terminus of the heavy chain through Linker1
B5: in the experiment with human CD47 [2], the IC50 was 0.765 µg/mL and 4.48 nM. Moreover, the MFI was 2490 MFI with human CD47 [3] and 534 MFI with human CD47 [4].

B6: anti-CD47/anti-CLDN18.2 bispecific antibody B12 (bispecific antibody, human IgG1, kappa)
heavy: not shown
light: DIQMTQSPSSLSASVGDRVTITCRASQDISNHLNWYQQKPGKAPKLLIYYTSRIHSGVPSSFRGSGSGTDYTLTISSLQPEDIATYFCQQGYTLPFTFGSGTKLEIKRTVAAPSVFIFPPSDEQLKSGTASVVCLLNNFYPREAKVQWKVDNALQSGNSQESVTEQDSKDSTYSLSSTLTLSKADYEKHKVYACEVTHQGLSSPVTKSFNRGEC
notes: IgG-like format; NA3S-H1 VHH at the N-terminus of the heavy chain through Linker2 (GGGGS)
As to B6, the figures for the MFI with human CD47 [3] and with human CD47 [4] were 2530 MFI and 1620 MFI, respectively.

B7: anti-CD47/anti-CLDN18.2 bispecific antibody B9 (bispecific antibody, human IgG1, kappa)
heavy: not shown
light: QVQLVESGGGLVQPGGSLRLSCAASGSIFNIPVMGWYRQAPGKQRELVAGISTGGTTNYGDSVKGRFTISRDNAKNTVYLQMNSLKPEDTAVYYCNVLVVSGIGSTLEVWGQGTLVTVSSGGGGSGGGGSDIQMTQSPSSLSASVGDRVTITCRASQDISNHLNWYQQKPGKAPKLLIYYTSRIHSGVPSSFRGSGSGTDYTLTISSLQPEDIATYFCQQGYTLPFTFGSGTKLEIKRTVAAPSVFIFPPSDEQLKSGTASVVCLLNNFYPREAKVQWKVDNALQSGNSQESVTEQDSKDSTYSLSSTLTLSKADYEKHKVYACEVTHQGLSSPVTKSFNRGEC
notes: IgG-like format; NA3S-H1 VHH at the N-terminus of the light chain through Linker1
On to B7, for which the MFI in the experiment with human CD47 [3] worked out at 1220 MFI; with human CD47 [4], 239 MFI.

B8: anti-CD47/anti-CLDN18.2 bispecific antibody B11 (bispecific antibody, human IgG1, kappa)
heavy: not shown
light: QVQLVESGGGLVQPGGSLRLSCAASGSIFNIPVMGWYRQAPGKQRELVAGISTGGTTNYGDSVKGRFTISRDNAKNTVYLQMNSLKPEDTAVYYCNVLVVSGIGSTLEVWGQGTLVTVSSGGGGSGGGGSDIQMTQSPSSLSASVGDRVTITCRASQDISNHLNWYQQKPGKAPKLLIYYTSRIHSGVPSSFRGSGSGTDYTLTISSLQPEDIATYFCQQGYTLPFTFGSGTKLEIKRTVAAPSVFIFPPSDEQLKSGTASVVCLLNNFYPREAKVQWKVDNALQSGNSQESVTEQDSKDSTYSLSSTLTLSKADYEKHKVYACEVTHQGLSSPVTKSFNRGEC
notes: IgG-like format; NA3S-H1 VHH at the N-terminus of both heavy and light chains
Regarding B8, the MFI amounted to 847 MFI in the experiment with human CD47 [3] and 238 MFI with human CD47 [4].
